Drawing on patent US20050106660A1 (Pieris, published 2005), this text covers binding result, Kd and Ka for one molecule.

Assay [1] has as its target T1, bovine serum albumin (BSA, Sigma) (bovine, UniProt P02769 25-607).
T1 construct: Immobilized by amine coupling on a CM5 chip (ca. 5000 RU)
In words: SPR (BIAcore X), BSA immobilized on CM5 chip, steady state. On the technique in general: Surface plasmon resonance follows binding to a sensor surface in real time, without labels.

The target in assay [2] is T2, hemoglobin (Sigma).
T2 construct: Immobilized by amine coupling on a CM5 chip (ca. 5000 RU)
In words: SPR (BIAcore X), hemoglobin immobilized on CM5 chip, steady-state values fitted. As to the method:
(§1) The binding affinity of the anticalin HbgA to hemoglobin was determined by surface plasmon resonance (SPR) using the BIAcore X system (BIACORE). Hemoglobin (100 μg/ml, dissolved in 10 mM maleate, pH 6.0) was immobilized at an amount of ca. 5000 resonance units (RU) to the surface of one flow channel on a CM5 sensor chip (BIACORE) using the amine coupling kit (BIACORE) according to the manufacturer's instructions. Unreacted groups on the biosensor chip surface were blocked with 1 M ethanolamine hydrochloride-NaOH pH 8.5. […] The concentration of HbgA and also of ApoD were determined by absorption at 280 nm using a calculated extinction coefficient of 54600 M⁻¹ cm⁻¹ and 34150 M⁻¹ cm⁻¹, respectively (Gill and von Hippel, Anal. Biochem. 182 (1989), 319-326). […] The binding of HbgA to hemoglobin, immobilized on the sensor chip, was measured by applying each 75 μl of these protein solutions. Steady state resonance values were detected for the channel with the immobilized hemoglobin for each concentration applied. For each measurement the resonance value that was due to buffer effects and simultaneously measured for the second channel of the sensor chip, was subtracted, and the resulting difference value was plotted against the applied concentration. […]

Assay [3] concerns the target T2, hemoglobin (Sigma). In words: not stated there (affinity measured by SPR in Example 5). As to the method: as §1

In general, Kd refers to the equilibrium constant for the complex coming apart.

T1 sequence (P02769 25-607 limits assumed): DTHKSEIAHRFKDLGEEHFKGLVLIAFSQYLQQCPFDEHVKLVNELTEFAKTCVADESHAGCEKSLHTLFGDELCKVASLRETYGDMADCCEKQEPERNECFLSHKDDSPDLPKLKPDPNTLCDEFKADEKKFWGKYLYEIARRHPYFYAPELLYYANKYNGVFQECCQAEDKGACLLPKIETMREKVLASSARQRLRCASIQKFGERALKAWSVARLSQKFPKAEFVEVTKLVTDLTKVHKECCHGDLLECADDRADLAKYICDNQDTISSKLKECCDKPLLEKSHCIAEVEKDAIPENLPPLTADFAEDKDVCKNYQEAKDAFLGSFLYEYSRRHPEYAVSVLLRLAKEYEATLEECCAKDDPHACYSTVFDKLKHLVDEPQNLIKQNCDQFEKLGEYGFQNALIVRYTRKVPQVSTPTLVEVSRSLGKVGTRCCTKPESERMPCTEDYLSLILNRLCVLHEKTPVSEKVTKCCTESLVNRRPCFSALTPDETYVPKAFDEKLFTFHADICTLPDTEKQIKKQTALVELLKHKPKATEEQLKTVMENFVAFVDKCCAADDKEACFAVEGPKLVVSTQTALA

B1: anticalin HbgA (mutein of human apolipoprotein D), purified, with C-terminal Strep-Tag II (designed binder)
chain: QAFHLGKCPNPPVQENFDVNKYPGRWYEIEKIPQFVWMGRCIQANYSLMENGKIKVLNQFLRITLDVWQIEGEATPVNLTEPAKLEVKEGLGDPSAPYWILATDYENYALVYSCESFLWLFHWDFAWILARNVALPPETVDSLKNILTSNNIDVKKMTVTDQVNCPKLS
notes: The amber codon at position 34 was replaced by a Gln codon; Scaffold carries Leu23Pro, Cys116Ser, Pro133Val, Asn134Ala; also called mutein HbgA; not shown: Strep-Tag II fused to the C-terminus (expression from pApoD10)
B1: the binding result in assay [1] was “no binding”. Moreover, the Kd with hemoglobin (Sigma) [2] came to 2200 nM. The Ka with hemoglobin (Sigma) [3] is greater than 1e+06 M⁻¹.
